{"source": "paper PMC5932034", "about": "(2018)", "parents": {"B1": {"name": "fused FliT−FliD^C construct (FliD^C fused to the N terminus of FliT) [Salmonella enterica serovar Typhimurium ST313] / cytoplasmic domain of Salmonella enterica serovar Typhimurium FlhA (FlhA^C) [Salmonella enterica serovar Typhimurium … (parent complex)", "chain 1": "GAHMSIDETVARYKAQFTQLDTMMSKLNNTSSYLTQQFTAMNKSGGSGGSGSGGSGGMTSTVEFINRWQRIALLSQSLLELAQRGEWDLLLQQEVSYLQSIETVMEKQTPPGITRSIQDMVAGYIKQTLDNEQLLKGLLQQRLDELSSLIGQSTRQKSLNNAYGRLSGMLLVPDAPGAS", "chain 2": "SLGMEVGYRLIPMVDFQQDGELLGRIRSIRKKFAQDMGFLPPVVHIRDNMDLQPARYRILMKGVEIGSGDAYPGRWLAINPGTAAGTLPGEKTVDPAFGLDAIWIESALKEQAQIQGFTVVEASTVVATHLNHLIGQFSAELFGRQEAQQLLDRVSQEMPKLTEDLVPGVVTLTTLHKVLQNLLAEKVPIRDMRTILETLAEHAPLQSDPHELTAVVRVALGRAITQQWFPGNEEVQVIGLDTALERLLLQALQGGGGLEPGLADRLLAQTQEALSRQEMLGAPPVLLVNHALRPLLSRFLRRSLPQLVVLSNLELSDNRHIRMTATIGGK"}, "B2": {"name": "fused FliS−FliC^C construct (FliC^C fused to the C terminus of FliS) [not stated] / cytoplasmic domain of Salmonella enterica serovar Typhimurium FlhA (FlhA^C) [Salmonella enterica serovar Typhimurium ST313] (parent complex)", "chain 1": "MYTASGIKAYAQVSVESAVMSASPHQLIEMLFDGANSALVRARLFLEQGDVVAKGEALSKAINIIDNGLKAGLDQEKGGEIATNLSELYDYMIRRLLQANLRNDAQAIEEVERLLSNIAEAWKQISPKASFQESRGTASGAGGSEGGGSEGGTSGATEDSDYATEVSNMSRAQILQQAGTSVLAQANQVPQNVLSLLR", "chain 2": "B1 chain 2"}}, "data": [{"variants_of": "B1", "experiment": "ITC; parent: 1; read off a plot", "values": [{"variant": "chain 2 V121K", "ratio to parent": "~7"}, {"variant": "chain 2 V126G", "ratio to parent": "~4"}, {"variant": "chain 2 T129M", "ratio to parent": "~3.3"}, {"variant": "chain 2 E279K", "ratio to parent": "~5"}, {"variant": "chain 2 E279K, chain 2 M280G, chain 2 L281G", "ratio to parent": "~10"}, {"variant": "chain 2 F98A", "ratio to parent": "~9"}, {"variant": "chain 2 I79A", "ratio to parent": "~6"}]}, {"variants_of": "B2", "experiment": "ITC; parent: 1; read off a plot", "values": [{"variant": "chain 2 I79A", "ratio to parent": "~10"}, {"variant": "chain 2 D95V", "ratio to parent": "~15"}, {"variant": "chain 2 V126G", "ratio to parent": "~15"}, {"variant": "chain 2 L100A", "ratio to parent": "~4"}, {"variant": "chain 2 V121K", "ratio to parent": "~12"}]}, {"variants_of": "B2", "experiment": "ITC; parent: 1; read off a plot", "remark": "another data set of the same source", "values": [{"variant": "chain 1 V13G", "ratio to parent": "~6.5"}]}]}
